Reference: patent publication US20050058639A1 (AstraZeneca / MedImmune, published 2005)

T1: human GRO/MGSA (human, UniProt P09341 35-107)
T1 construct: also called hGRO/MGSA; GRO-alpha
T1 sequence (looked up): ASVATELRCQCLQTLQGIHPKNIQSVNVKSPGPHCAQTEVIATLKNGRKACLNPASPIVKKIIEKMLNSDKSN

T2: human RANTES (human, UniProt P13501 24-91)
T2 construct: also called hRANTES
T2 sequence (looked up): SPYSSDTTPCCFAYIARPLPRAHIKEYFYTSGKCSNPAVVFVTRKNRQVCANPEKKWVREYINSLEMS

T3: human MIP-1-alpha (human, UniProt P10147 24-92, limits assumed)
T3 construct: also called hMIP-1-alpha
T3 sequence (looked up): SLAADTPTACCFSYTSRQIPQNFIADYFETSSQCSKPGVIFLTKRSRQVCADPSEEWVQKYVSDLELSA

T4: recombinant human MCP-2 (human, UniProt P80075 24-99)
T4 construct: also called rhMCP-2
T4 sequence (looked up): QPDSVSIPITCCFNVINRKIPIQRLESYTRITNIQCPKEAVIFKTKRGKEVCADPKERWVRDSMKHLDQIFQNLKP


Experiments:
[1] = target: T5, human monocyte chemo-attractant protein-1 (MCP-1) (human, UniProt P13500 24-99); experiment: Biacore, mAb immobilized, MCP-1 injected; Biacore, 25 C, native MCP-1 injected over immobilized mAb
T5 construct: 76-residue recombinant protein from E. coli, bought (PeproTech); also called hMCP-1(MCAF); human MCP-1
T5 sequence (P13500 24-99): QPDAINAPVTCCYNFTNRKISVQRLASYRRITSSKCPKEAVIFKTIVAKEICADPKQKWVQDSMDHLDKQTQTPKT
Experimental: Determination of anti-MCP-1 antibody affinity using Biacore analysis. The antibody/MCP-1 interaction analysis was performed at 25° C. using two CM5 chips docked in Biacore 3000 optical biosensors. Individual flow cells on each chip were activated with a 7-minute injection of NHS/EDC, carbohydrazide was coupled through the NHS ester using a 7-minute injection, and the residual activated groups were blocked with a 7-minute injection of ethanolamine. The monosaccharide residues of each antibody were oxidized using 1 mM sodium metaperiodate in 100 mM sodium acetate, pH 5.5 at 4° C. for 30 minutes. The oxidized antibody was desalted into 100 mM sodium acetate, pH 5.0, to couple the antibody to the carbohydrazide-modified surface. The mAb surfaces were stabilized by reducing the hydrazone bond with 0.1 M sodium cyanoborohydride. The antigen/antibody interaction was tested by injecting 0, 0.049, 0.15, 0.4, 1.3, 4 and 12 nM of MCP-1 (Peprotech, N.J.) in running buffer (10 mM HEPES, 150 mM NaCl, 0.005% surfactant, 200 μg/ml BSA, pH 7.4). The surfaces were regenerated with a 12-second pulse of 15 mM H₃PO₄. The antigen/antibody interaction was tested by injecting duplicate antigen samples diluted in running buffer (10 mM HEPES, […], 0.005% surfactant, 200 μg/mL BSA, pH 7.4), in a 300-fold concentration range. The surfaces were regenerated with a 12-second pulse of 15 mM H₃PO₄. To determine the kinetics of each interaction, the data sets were fit globally to a 1:1 interaction model that included a parameter for mass transport.

human GRO/MGSA = target: T1, human GRO/MGSA; experiment: ELISA, coated antigen
Outline: (§1)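 Plates coated overnight at 4° C with MCP-1, MCP-2, MCP-3, MCP-4, RANTES, GRO-alpha, MIP-1 alpha, eotaxin, rat MCP-1 or mouse JE (2 μg/ml, carbonate buffer pH 9.6), blocked with BSA. Hybridoma supernatants bound 2 hours at room temperature; TMB colour developed about 10 minutes.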

human eotaxin = target: T6, human eotaxin (human, UniProt P51671 24-97); experiment: ELISA, coated antigen
T6 construct: also called hEotaxin
Outline: as §1

recombinant human MCP-4 = target: T7, recombinant human MCP-4 (human, UniProt Q99616 24-98, limits assumed); experiment: ELISA, coated antigen
T7 construct: also called rhMCP-4
Outline: as §1

recombinant human MCP-3 = target: T8, recombinant human MCP-3 (human, UniProt P80098 24-99); experiment: ELISA, coated antigen
T8 construct: also called rhMCP-3
T8 sequence (P80098 24-99 limits assumed): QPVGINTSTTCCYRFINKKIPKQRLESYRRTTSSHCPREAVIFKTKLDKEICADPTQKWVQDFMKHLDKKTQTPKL
Outline: as §1

[2] = target: T9, recombinant mouse JE/MCP-1 (mouse, UniProt P10148 24-148); experiment: ELISA, coated antigen
T9 construct: also called rmJE/MCP-1
Outline: as §1

human RANTES = target: T2, human RANTES; experiment: ELISA, coated antigen
Outline: as §1

rat MCP-1 = rat MCP-1 (rat, UniProt P14844 24-148); experiment: ELISA, coated antigen
rat MCP-1, sequence (P14844 24-148 limits assumed): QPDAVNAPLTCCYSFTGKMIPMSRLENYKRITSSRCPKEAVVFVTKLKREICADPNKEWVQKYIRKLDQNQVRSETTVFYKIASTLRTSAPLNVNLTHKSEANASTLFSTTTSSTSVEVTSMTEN
Outline: as §1

human MIP-1-alpha = target: T3, human MIP-1-alpha; experiment: ELISA, coated antigen
Outline: as §1

recombinant human MCP-2 = target: T4, recombinant human MCP-2; experiment: ELISA, coated antigen
Outline: as §1

[3] = target: T5, human monocyte chemo-attractant …; experiment: cell-based or functional assay
[4] = target: T5, human monocyte chemo-attractant …; experiment: ELISA, hybridoma supernatant on coated MCP-1; ELISA, hybridoma supernatant on plate-coated non-reduced MCP-1 (2 ug/mL)
Experimental: Selection of candidate antibodies for ELISA. After 14 days of culture, hybridoma supernatants were screened for MCP-1-specific monoclonal antibodies. The ELISA plates (Fisher, Cat. No. 12-565-136) were coated with 50 μl/well of MCP-1 (2 μg/mL) in Coating Buffer (0.1 M Carbonate Buffer, pH 9.6, NaHCO₃8.4 g/L), then incubated at 4° C. overnight. After incubation, the plates were washed with Washing Buffer (0.05% Tween 20 in PBS) three times. 200 μl/well Blocking Buffer (0.5% BSA, 0.1% Tween 20, 0.01% Thimerosal in 1× PBS) were added and the plates incubated at room temperature for 1 hour. After incubation, the plates were washed with Washing Buffer three times. 50 μL/well of hybridoma supernatants, and positive and negative controls were added and the plates incubated at room temperature for 2 hours.
The positive control used throughout was XMG2 MCP-1 Group 1, footpad N160-7 and the negative control was XMG2 KLH Group 1, footpad L627-6. After incubation, the plates were washed three times with Washing Buffer. […] In the secondary screen, three sets of samples (positives in first screening) were screened, one set for hIgG detection, one set for hKappa detection, and one set for hlambda detection. After incubation, the plates were washed three times with Washing Buffer. 100 μL/well of TMB (BioFX Lab. Cat. #TMSK-0100-01) were added and the plates allowed to develop for about 10 minutes (until negative control wells barely started to show color), then 50 μL/well stop solution (TMB Stop Solution (BioFX Lab. Cat. #STPR-0100-01) were added and the plates read on an ELISA plate reader at wavelength 450 nm. The OD readings from the positive wells are presented in Table 9.

[5] = target: T5, human monocyte chemo-attractant …; experiment: ELISA, coated antigen; ELISA, purified clone 1:50 on coated hMCP-1 (2 ug/mL), cross-reactivity panel
Experimental: Determining cross-reactivity of anti-MCP-1 antibodies with other chemokines. ELISA plates (Fisher Cat. No. 12-565-136) were coated with 50 μl/well of MCP-1, MCP-2, MCP-3, MCP-4, RANTES, GRO-alpha, MIP-1 alpha, eotaxin, rat MCP-1 and mouse JE (2 μg/ml) in coating buffer (0.1 M carbonate buffer, pH 9.6, NaHCO₃ 8.4 g/L, then incubated at 4° C. overnight. After incubation, the plates were washed with washing buffer (0.05% Tween 20 in PBS) three times. 200 μL/well blocking buffer (0.5% BSA, 0.1% Tween 20, 0.01% Thimerosal in 1×PBS) were added and the plates incubated at room temperature for 1 hour. After incubation, the plates were washed with washing buffer three times. 50 μL/well of hybridoma supernatants, and positive and negative controls (positive control was anti-MCP-1 antibody purchased from R&D Sciences, and negative control was an antibody to Keyhole Limpet Hemocyanin produced at Abgenix) were added and the plates incubated at room temperature for 2 hours. After incubation, the plates were washed three times with washing buffer. […] After incubation, the plates were washed three times with washing buffer and 100 μL/well of TMB (BioFX Lab. Cat. #TMSK-0 100-01) was added and the plates allowed to develop for about 10 minutes.

Kd [1] [nM]	ELISA OD (human GRO/MGSA) [OD450]	ELISA OD (human eotaxin) [OD450]	ELISA OD (recombinant human MCP-4) [OD450]	ELISA OD (recombinant human MCP-3) [OD450]	ELISA OD [2] [OD450]	ELISA OD (human RANTES) [OD450]	ELISA OD (rat MCP-1) [OD450]	ELISA OD (human MIP-1-alpha) [OD450]	ELISA OD (recombinant human MCP-2) [OD450]	IC50 Ca++ Flux [3] [µg/mL]	IC50 Chemotaxis [3] [µg/mL]	ELISA OD-MCP-1 [4] [OD450]	ELISA OD [5] [OD450]	Binder
0.0048	0.045	0.043	0.048	0.048	0.046	0.067	0.048	0.049	0.043	0.094	0.98	4	1.28	anti-MCP-1 mAb 3.7.1 (antibody, human IgG2, kappa, V domains shown, also called 3.7.2) VH: QVQLVQSGAEVKKPGASVKVSCKVSGYTLTELSMHWVRQTPGKGLEWMGGFDPEDGETIYAQKFQDRVTMTEDTSTDTAYMELSSLRSEDTAVYYCATNDFWTGYYDYWGQGTLVTVSS VL: not shown
0.1	0.048	0.043	0.044	0.045	0.042	0.044	0.053	0.047	0.042	0.58	3.1	3.77	0.194	anti-MCP-1 mAb 3.5.1 (antibody, V domains shown) VH: QVQLVQSGAEVKKPGASVKVSCKVSGYTLSELSMHWVRQAPGKGLEWMGGFDPEDDETIYAQKFQGRVTMTEDTSTDTAFMELSSLRSEDTAVYYCATHDFWSGYFHYWGQGTLVTVSS VL: DIVMTQSPDSLAVSLGERATINCKSSQSVLYSSDNKSYLVWYQQKPGQPPKVLIYWASIRESGVPDRFSGSGSGTDFTLTISSLQAEDVAVYYCQQYYTSPWTFGQGTKVEIKR
0.015	0.047	0.043	0.048	0.045	0.047	0.043	0.046	0.047	0.052	0.17	0.52	3.59	0.342	anti-MCP-1 mAb 3.6.1 (antibody, V domains shown) VH: QVQLVQSGAEVKKPGASVKVSCKVSGYTLTELSMHWVRQAPGKGLEWMGGFDPEDGETIYAQKFQGRVTMTEDTSTDTAYMELSSLRSEDTAVYYCAIHEFWSGYFDYWGQGTLVTVSS VL: not shown
0.096	0.043	0.042	0.042	0.044	0.053	0.042	0.065	0.044	0.04	1.2	35	3.66	0.446	anti-MCP-1 mAb 1.9.1 (antibody, V domains shown) VH: QVQLVQSGAEVKKPGASVKVSCKVSGYTLTELSMHWVRQAPGKGLEWMGGFDPEDGETINAQKFQGRVTMTEDTSTDTGYMELSSLRSEDTAVYYCATDPGGYSGYFDHWGQGTLVTVSS VL: not shown
0.014	0.048	0.084	0.06	0.066	0.129	0.046	0.077	0.061	0.045	0.26	> 5	3.89	0.462	anti-MCP-1 mAb 2.4.1 (antibody, V domains shown) VH: QVQLVQSGAEVKKPGASVKVSCKASGYTFTGYYLHWVRQAPGQGLEWMGWINPYNDGTNYAQKFQGRVTMTRDTSISTAYMELSRLRSDDTAVYYCARDIAAAGAVYFDYWGQGTLVTVSS VL: DIQMTQSPSSLSASVGDRVTITCQASQDITTYLNWYQQKPGKAPKLLIYDASNLETGVPSRFSGSGSGTDFTFTISSLQPEDIATYYCQQYDNLPITFGQGTRLEIKR
